Experimental data as given in US20230090311A1, “SELF-ASSEMBLING, SELF-A[…] FOR […] OF VACCINES” (THE UNIVERSITY OF QUEENSLAND, priority 2020, published 2023).
Where “and” joins values, the source holds several entries; their conditions need not be identical. Identical values can stand only once. Entries after “also recorded” stand apart in the source; their conditions may differ. No end group written: not given here.

How the values were obtained:
[1] = Dynamic Light Scattering, Example 5; type: physicochemical; details: for Polydispersity index (PDI): DLS; for Particle size (nm) DLS: size as measured by intensity, 1-4 1 mg/mL, 5-11 2 mg/mL in PBS
Description: Dynamic Light Scattering. Individual compounds 1-4 (1 mg/mL in PBS) and 5-11 (2 mg/mL in PBS) were analyzed using DLS to measure particle size (zeta intensity) and PDI. The samples were treated with ultrasonication for 30 min, then transferred into disposable cuvettes. Measurement were taken at 25° C. and […] light scattering. DLS measurements were taken using a Zetasizer Nano ZP instrument (Malvern Instrument, UK) with Malvern Zetasizer Analyser 6.2 software.

[2] = Transmission Electron Microscopy, Example 5; type: physicochemical; details: negative staining; NP = nanoparticles, CLANs = chain like aggregates of nanoparticles
Excerpt: Transmission Electron Microscopy. Particle-imaging was captured using a JEM-1010 TEM (HT7700 Exalens, HITACHI Ltd., JEOL Ltd., Japan) operated at 80 kV, using negative staining. Samples of compounds 1-11 (1:2 dilution of samples prepared for DLS analysis) were applied to glow-discharged carbon-coated copper 200-mesh grids (Ted Pella) and negative-stained with 2% phosphotungstic acid.

[3] = system: RBD; details: 30 μg with CFA, single s.c. immunization; serum day 14
[4] = system: B1; details: 30 μg with CFA, single s.c. immunization
[5] = system: p145; details: second animal study
[6] = system: J8; type: in vivo, C57BL/6 mice; details: first animal study (epitope arrangement); 50 μg s.c., days 0, 21, 28, 35; listed as Conjugate 3
[7] = Characterisation of nanoliposomes by DLS, Example 2; type: physicochemical
Description: The particle size, zeta potential and polydispersity of vaccine candidates were measured by dynamic light scattering (DLS) using zetasizer (Nano ZX, Marvern, England). The particle morphology of vaccine candidates was examined using transmission electron microscope (TEM) (HT7700 Exalens, HITACHI Ltd., Japan) after vacuum-drying. Briefly, the sample were diluted in pure distilled water (1:100) and dropped directly on a glow-discharged carbon coated copper grid and then stained with 2% uranyl acetate.

[8] = system: E749-57 (RAHYNIVTF) peptide-specific CD8+ T-cell response; assay: IFN-gamma ELISPOT assay; type: in vivo, C57BL/6 mice; details: splenocytes ten days after immunisation, restimulated with E7 peptide
Description: The mice received single dose of vaccine.
ELISPOT plates were coated with 5 μg mL-1 IFN-g capture antibody (clone) in PBS at 4° C. overnight. The plates were then blocked with RPM/20% FCs at room temperature for 3 hours. Splenocytes from C57/BL/6 mice were harvested from the spleens of naïve and immunised mice. The red blood cells were depleted using red blood cell lysing buffer (0.155 M ammonium chloride in 0.01 M Tris-HCl buffer, Sigma). Splenocytes were then resuspended in RPMI (sigma) supplemented with 20% FACs (100 UmL-1 penicillin and 100 μg mL-1 streptomycin and 50 μM b-mercaptoethanol. The cells were plated at 5×10^5 cells per well in triplicate on ELISPOT plates. E7 peptide (10 μg mL-1) was added alongside 10 ng mL-1 rhIL-2 to a final volume of 200 μL per well. Plates were incubated for 8 hours at 37 C, washed and biotinylated IFN-g detection antibody in 1% BSA added at room temperature, plates were washed again and bound cytokine was visualised with 3-amino-9ethylcarbozole. Spots were counted with an ELISPOT reader.

[9] = system: TC-1 tumour cells; assay: In vivo tumour treatment experiments

Ac-(Ser)15-PADRE-J8 (Ac-SSSSSSSSSSSSSSSAKFVAAWTLKAAAQAEDKVKQSREAKKQVEKALKQLEDKVQ) [Compound 10]
Polydispersity index (PDI) [1]: 0.31 ± 0.02
Particle size (nm) DLS [1]: 240 ± 9 nm
Particle size (nm) TEM [2]: 10-90 nm NP and CLANs

AIHADQLTPTWRVYSTG [Compound B1]
anti-RBD IgG [3]: did not generate anti-RBD IgG
antibody titers against the epitope itself [4]: did not generate significant antibody titers against itself

Ac-(Phe-Leu-Ala)5-PADRE-J8 (Ac-FLAFLAFLAFLAFLAAKFVAAWTLKAAAQAEDKVKQSREAKKQVEKALKQLEDKVQ) [Compound 11]
Polydispersity index (PDI) [1]: 0.44 ± 0.02
Particle size (nm) DLS [1]: 255 ± 9 nm
Particle size (nm) TEM [2]: 10-20 nm NP and CLANs

AKFVAAWTLKAAAQAEDKVKQSREAKKQVEKALKQLEDKVQ [Compound 1]
p145-specific serum IgG antibodies [5]: less efficient or completely unable to recognize p145

Ac-(Leu)15-PADRE-K-J8 (Ac-LLLLLLLLLLLLLLLAKFVAAWTLKAAAKQAEDKVKQSREAKKQVEKALKQLEDKVQ) [Compound 3]
J8-specific serum IgG antibody titers [6]: significant immunoglobulin G (IgG) titers after the primary immunization; also recorded: higher antibody titers than the previously identified lead vaccine candidate (2)

LLLLLLLLLLQAEPDRAHYNIVTF [Leu-8Qm]
PDI ([7]; DLS): 0.6 and 0.6 ± 0.1
Size ([7]; DLS): 4000 ± 150 nm
Charge ([7]; zeta potential): −10 mV and −10 ± 5 mV
IFN-gamma production (ELISPOT) [8]: significantly produced IFN levels
survival of tumour-bearing mice ([9]; single dose 100 μg on day 7 after TC-1 inoculation): increased survival rate of tumour infected mice
day by which tumours of all mice exceeded 1 cm^3 ([9]; single dose on day 7 after TC-1 inoculation): 57 days
